This note sets out measurements from patent publication US20200164032A1 (WASHINGTON UNIVERSITY, published 2020).

Test [1] deals with CCL2 (species not given). The test can be described thus: SPR, R17 variant on CM5 chip; column ka x 10^6 M-1s-1. (In general: In SPR one partner is held on a chip, and binding of the other changes the refractive index at the surface.)
For test [2], the target named is T1, human CCL2 (human, UniProt P13500 24-99).
T1 construct: also called hCCL2
The test can be described thus: SPR saturation binding (KD,eq), R17 on CM5 chip.

The target of a further test is T2, human CCL3 (human, UniProt P10147 23-92).
T2 construct: also called hCCL3
T2 sequence: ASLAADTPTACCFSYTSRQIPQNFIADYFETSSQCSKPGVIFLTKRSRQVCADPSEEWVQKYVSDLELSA
The test can be described thus: SPR saturation binding (KD,eq), R17 on CM5 chip.

Test [3] deals with T3, murine CCL24 (mouse, UniProt Q9JKC0 27-119).
T3 construct: also called mCCL24
T3 sequence: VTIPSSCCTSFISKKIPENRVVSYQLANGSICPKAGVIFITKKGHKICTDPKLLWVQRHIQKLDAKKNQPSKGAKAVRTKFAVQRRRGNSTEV
The test can be described thus: SPR, R17 on CM5 chip.

Another test addresses T4, murine IL-17 (mouse, UniProt Q62386 26-158).
T4 construct: also called mIL-17
T4 sequence: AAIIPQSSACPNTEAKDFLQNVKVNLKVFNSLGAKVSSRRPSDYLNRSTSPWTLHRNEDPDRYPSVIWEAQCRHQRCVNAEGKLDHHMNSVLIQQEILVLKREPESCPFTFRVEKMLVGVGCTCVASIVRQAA
The test can be described thus: SPR, R17 on CM5 chip.

In test [4] the target is T5, murine XCL1 (lymphotactin) (mouse, UniProt P47993 22-114).
T5 construct: also called mXCL1; lymphotactin (XCL1)
T5 sequence: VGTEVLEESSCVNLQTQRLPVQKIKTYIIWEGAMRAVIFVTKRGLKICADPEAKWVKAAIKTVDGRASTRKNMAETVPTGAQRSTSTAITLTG
The test can be described thus: SPR, R17 on CM5 chip; KD,eq from saturation binding, Scatchard analysis.

The target of the next test is T6, human CCL5 (human, UniProt P13501 24-91).
T6 construct: also called hCCL5
T6 sequence: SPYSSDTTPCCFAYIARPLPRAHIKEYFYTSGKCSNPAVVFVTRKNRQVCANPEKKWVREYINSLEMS
The test is described as above.

The target in test [5] is T7, murine CCL8 (mouse, UniProt Q9Z121 24-97).
T7 construct: also called mCCL8
T7 sequence: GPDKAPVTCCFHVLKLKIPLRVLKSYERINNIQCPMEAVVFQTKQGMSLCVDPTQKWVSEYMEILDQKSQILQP
The description is as above.

For test [6], the target named is T8, murine CCL2 (mouse, UniProt P10148 24-148).
T8 construct: also called mCCL2
T8 sequence (P10148 24-148 limits assumed): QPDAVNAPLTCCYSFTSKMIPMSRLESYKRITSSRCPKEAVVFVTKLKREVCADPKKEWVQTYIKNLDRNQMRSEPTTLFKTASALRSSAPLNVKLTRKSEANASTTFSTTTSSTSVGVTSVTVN
Described as above.

Test [7] addresses T3, murine CCL24. Described as above.
Test [8] concerns the target T9, murine CCL20 (mouse, UniProt O89093 28-97).
T9 construct: also called mCCL20
T9 sequence: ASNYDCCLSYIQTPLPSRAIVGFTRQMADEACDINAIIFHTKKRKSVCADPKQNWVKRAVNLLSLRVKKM
The test is described as above.

Another test addresses T10, murine CCL4 (mouse, UniProt P14097 24-92).
T10 construct: also called mCCL4
T10 sequence: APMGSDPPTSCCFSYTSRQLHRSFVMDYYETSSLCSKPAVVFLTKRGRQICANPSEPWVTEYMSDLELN
The description is as above.

For test [9], the target named is T11, CCL9 (UniProt P51670 22-122).
T11 sequence: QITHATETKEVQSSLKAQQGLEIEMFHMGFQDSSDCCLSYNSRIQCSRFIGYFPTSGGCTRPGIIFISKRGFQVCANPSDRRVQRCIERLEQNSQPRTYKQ
Described as above.

A further test has as its target T12, murine CCL5 (mouse, UniProt P30882 24-91).
T12 construct: also called mCCL5
Described as above.

Test [10] addresses T13, murine CCL12 (mouse, UniProt Q62401 23-104).
T13 construct: also called mCCL12
T13 sequence: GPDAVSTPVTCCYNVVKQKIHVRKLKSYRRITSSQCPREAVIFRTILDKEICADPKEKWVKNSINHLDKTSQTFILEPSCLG
The test is described as above.

For another test, the target named is T14, murine CCL3 (mouse, UniProt P10855 24-92).
T14 construct: also called mCCL3
T14 sequence: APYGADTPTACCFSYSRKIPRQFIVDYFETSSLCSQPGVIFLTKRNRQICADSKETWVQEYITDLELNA
The description is as above.

The target of test [11] is T1, human CCL2. The test can be described thus: SPR, R17 on CM5 chip; KD,kin = kd/ka from the global fit.
Test [12] deals with T7, murine CCL8. The test is described as above.
Test [13] addresses T8, murine CCL2. The description is as above.
Test [14] has as its target T9, murine CCL20. The test is described as above.
The target in test [15] is T11, CCL9. The description is as above.
The target in test [16] is T13, murine CCL12. The test is described as above.

T1 sequence (P13500 24-99 limits assumed): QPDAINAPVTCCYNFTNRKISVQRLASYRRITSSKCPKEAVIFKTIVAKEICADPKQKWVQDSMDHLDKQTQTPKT
T12 sequence (P30882 24-91 limits assumed): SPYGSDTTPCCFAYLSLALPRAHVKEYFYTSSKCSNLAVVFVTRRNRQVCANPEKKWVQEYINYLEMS

B1: R17 chemokine decoy receptor of Rodent herpesvirus Peru (RHVP), wild type, C-terminal 8-His fusion (receptor)
chain: GPVGEPVASEINEASKVSSRLLTQDILFRKDRQATISLPIKLPVEDIITQTCDKITYGPLKFLDLLEKETAVLPLSTDITCPACLGRAVLVGKWECPAHVAVNESDLTVFGPNKEEHVPQFVTVQQPSDGKMQRLFFAKFLGTEESLAVLRVPGPDGHLCIQEALIHFKELSGAGVCSLWKANDSREEGLEMKQVDCLETTVLENQTCIATTLSKKIYHRLYCGERLMTGGQVSTRVLLTALGFYKRQPYTFHRVPKGMVYVHLIDSGSEDYMEYSECEEVTPGRYEDKQISYTFYTDLFQTADGEPVLASVWGTSGLKDSAYESCAFVIPTKGRRKLVPRRIMSKCYPFRLTYHPSTMTVRLDVRVEKHHGATDQGFVFLKMESGTYSEGREYYLDRVLWGEDSSTNNVLQ
notes: not shown: C-terminal 8-His tag
For orientation: kon means the rate constant with which the complex forms. By Kd is commonly meant a measure of binding affinity in units of concentration. The low end stands for tighter binding, the high end for weaker binding. B1 registered a kon in test [1] of 2e+06 M⁻¹ s⁻¹. Further, the Kd with human CCL2 [2] amounted to 12 nM; with human CCL3, 1.4 nM; in test [4] it was 4.2 nM; in the test with human CCL5 it was 0.9 nM; with murine CCL8 [5], 80 nM; with murine CCL2 [6] it was 10 nM. Further, the dissociation constant Kd is 2.2 nM with murine CCL24 [7]; 3.4 nM with murine CCL20 [8]; 0.8 nM in the test with murine CCL4; 1.3 nM in the test with CCL9 [9]; 0.1 nM in the test with murine CCL5; 1.3 nM with murine CCL12 [10]. Moreover, the equilibrium dissociation constant (Kd) amounted to 0.4 nM in the test with murine CCL3; 7.5 nM with human CCL2 [11]; 76 nM in the test with murine CCL8 [12]; 6.7 nM with murine CCL2 [13]; 4.7 nM in the test with murine CCL20 [14]; 4.5 nM with CCL9 [15]. This molecule also displayed a Kd with murine CCL12 [16] of 1.1 nM. Moreover, in the test with murine CCL24 [3], the complex half-life is > 10 min. Moreover, the binding result with murine IL-17 is listed as “no binding”.
